Substrate in the series: Nc1nc2c(ncn2[C@H]2C[C@H](O)[C@@H](COP(=O)(O)OP(=O)(O)OP(=O)(O)O)O2)c(=O)[nH]1
Put plainly: purified protein. The following applies: matched primer-template C-G (prothrombin factor II), Tris-HCl pH 8, 1.5 mM MgCl2, temperature not stated for kinetics (55 °C in primer extension assay). The format is biochemical, Thermococcus kodakarensis.

Data on 2 proteins can be found in PMC5568139, “Variants of sequence family B Thermococcus kodakaraensis DNA polymerase with increased mismatch extension selectivity” (PLoS ONE, 2017).

B1: KOD pol wildtype (3'-5'-exonuclease deficient Thermococcus kodakaraensis DNA polymerase) (Thermococcus kodakarensis KOD1; D141A/E143A) (protein)
chain 1: MILDTDYITEDGKPVIRIFKKENGEFKIEYDRTFEPYFYALLKDDSAIEEVKKITAERHGTVVTVKRVEKVQKKFLGRPVEVWKLYFTHPQDVPAIRDKIREHPAVIDIYEYDIPFAKRYLIDKGLVPMEGDEELKMLAFAIATLYHEGEEFAEGPILMISYADEEGARVITWKNVDLPYVDVVSTEREMIKRFLRVVKEKDPDVLITYNGDNFDFAYLKKRCEKLGINFALGRDGSEPKIQRMGDRFAVEVKGRIHFDLYPVIRRTINLPTYTLEAVYEAVFGQPKEKVYAEEITTAWETGENLERVARYSMEDAKVTYELGKEFLPMEAQLSRLIGQSLWDVSRSSTGNLVEWFLLRKAYERNELAPNKPDEKELARRRQSYEGGYVKEPERGLWENIVYLDFR
chain 2: SLYPSIIITHNVSPDTLNREGCKEYDVAPQVGHRFCKDFPGFIPSLLGDLLEERQKIKKKMKATIDPIERKLLDYRQRAIKILAN
chain 3: SYYGYYGYARARWYCKECAESVTAWGREYITMTIKEIEEKYGFKVIYSDTDGFFATIPGADAETVKKKAMEFLKYINAKLPGALELEYEGFYKRGFFVTKKKYAVIDEEGKITTRGLEIVRRDWSEIAKETQARVLEALLKDGDVEKAVRIVKEVTEKLSKYEVPPEKLVIHEQITRDLKDYKATGPHVAVAKRLAARGVKIRPGTVISYIVLKGSGRIGDRAIPFDEFDPTKHKYDAEYYIENQVLPAVERILRAFGYRKEDLRYQKTRQVGLSAWLKPKGT
notes: mature intein-free polymerase expected (precursor holds two inteins); pET21a, E. coli BL21(DE3), Ni resin
For B1, the Km (as a rule, the concentration of substrate that gives half-maximal velocity) came out at 0.168 ± 0.04 µM; the kcat – broadly, the maximal rate divided by the concentration of active sites – stood at 0.81 ± 0.12 s⁻¹; the kcat/Km (as a rule, the turnover number divided by the Michaelis constant) amounted to 4.8e+06 ± 1.9e+06 M⁻¹ s⁻¹.

B2: KOD pol wildtype (3'-5'-exonuclease deficient Thermococcus kodakaraensis DNA polymerase) (Thermococcus kodakarensis KOD1; D141A/E143A/R1398C) (protein)
chain 1: MILDTDYITEDGKPVIRIFKKENGEFKIEYDRTFEPYFYALLKDDSAIEEVKKITAERHGTVVTVKRVEKVQKKFLGRPVEVWKLYFTHPQDVPAIRDKIREHPAVIDIYEYDIPFAKRYLIDKGLVPMEGDEELKMLAFAIATLYHEGEEFAEGPILMISYADEEGARVITWKNVDLPYVDVVSTEREMIKRFLRVVKEKDPDVLITYNGDNFDFAYLKKRCEKLGINFALGRDGSEPKIQRMGDRFAVEVKGRIHFDLYPVIRRTINLPTYTLEAVYEAVFGQPKEKVYAEEITTAWETGENLERVARYSMEDAKVTYELGKEFLPMEAQLSRLIGQSLWDVSRSSTGNLVEWFLLRKAYERNELAPNKPDEKELARRRQSYEGGYVKEPERGLWENIVYLDFR
chain 2: SLYPSIIITHNVSPDTLNREGCKEYDVAPQVGHRFCKDFPGFIPSLLGDLLEERQKIKKKMKATIDPIERKLLDYRQRAIKILAN
chain 3: SYYGYYGYACARWYCKECAESVTAWGREYITMTIKEIEEKYGFKVIYSDTDGFFATIPGADAETVKKKAMEFLKYINAKLPGALELEYEGFYKRGFFVTKKKYAVIDEEGKITTRGLEIVRRDWSEIAKETQARVLEALLKDGDVEKAVRIVKEVTEKLSKYEVPPEKLVIHEQITRDLKDYKATGPHVAVAKRLAARGVKIRPGTVISYIVLKGSGRIGDRAIPFDEFDPTKHKYDAEYYIENQVLPAVERILRAFGYRKEDLRYQKTRQVGLSAWLKPKGT
notes: as for B1
For B2, the Michaelis-Menten constant (Km) came to 96 ± 21 µM, the kcat turned out to be 8.3 ± 0.6 s⁻¹ and the kcat/Km worked out at 90000 ± 20000 M⁻¹ s⁻¹.
